Each block holds one sequence with its values, some of them ahead of it.
Tests used:
HLA-B*07:02 = test: IEDB peptide-MHC binding, purified MHC/competitive/radioactivity; filed as Kd, often an IC50 or EC50 that approximates it; ≥ and ≤ were set here for values at or beyond the usual limits of such assays
HLA-B*35:01 = test: as above
HLA-B*53:01 = test: as above
HLA-B*54:01 = test: as above
HLA-B*51:01 = test: as above
HLA-A*26:01 = test: as above; conditions: source organism: Dengue virus 1 Brazil/97-11/1997
HLA-A*68:02 = test: as above
HLA-A*02:01 = test: as above; conditions: source organism: Homo sapiens
HLA-A*02:06 = test: as above
HLA-B*57:01 = test: IEDB peptide-MHC binding, purified MHC/direct/fluorescence; filed as Kd, often an IC50 or EC50 that approximates it; ≥ and ≤ were set here for values at or beyond the usual limits of such assays; conditions: source organism: Mycobacterium tuberculosis str. Haarlem
HLA-B*58:01 = test: as above; conditions: source organism: Mycobacterium tuberculosis
HLA-A*31:01 = test: IEDB peptide-MHC binding, purified MHC/competitive/radioactivity; filed as Kd, often an IC50 or EC50 that approximates it; ≥ and ≤ were set here for values at or beyond the usual limits of such assays; conditions: source organism: Vaccinia virus WR
HLA-A*03:01 = test: as above; conditions: source organism: Vaccinia virus WR
HLA-A*33:01 = test: as above; conditions: source organism: Vaccinia virus WR
HLA-A*11:01 = test: as above; conditions: source organism: Vaccinia virus WR
HLA-A*68:01 = test: as above; conditions: source organism: Vaccinia virus WR
[1] = source organism: SARS coronavirus Tor2
[2] = source organism: Vaccinia virus WR
[3] = source organism: Dengue virus 1 Brazil/97-11/1997
[4] = source organism: Lymphocytic choriomeningitis virus (strain Armstrong)
[5] = source organism: Triticum aestivum

Sequence: AKNPNRFVI
Kd (HLA-B*07:02; source organism: Variola virus): 11900 nM | Kd (HLA-B*35:01; source organism: Variola virus): ≥ 77400 nM | Kd (HLA-B*53:01; source organism: Variola virus): ≥ 78.1 µM | Kd (HLA-B*54:01; source organism: Variola virus): ≥ 78.1 µM | Kd (HLA-B*51:01; source organism: Variola virus): ≥ 77.4 µM

Sequence: APSASAFFGM
Kd (HLA-B*07:02; [1]): 122 nM | Kd (HLA-B*35:01; [1]): 2140 nM | Kd (HLA-B*53:01; [1]): 4.11 µM | Kd (HLA-B*54:01; [1]): ≥ 42.7 µM | Kd (HLA-B*51:01; [1]): 1.99 µM

Sequence: DPVYISQFSY
Kd (HLA-B*07:02; [2]): ≥ 69600 nM | Kd (HLA-B*35:01; [2]): 928 nM | Kd (HLA-B*53:01; [2]): 10.5 µM | Kd (HLA-B*54:01; [2]): ≥ 38.6 µM | Kd (HLA-B*51:01; [2]): ≥ 69.6 µM

Sequence: DTAWDFGSI
Kd (HLA-A*26:01): 562 nM | Kd (HLA-A*68:02; [3]): 3.09 nM

Kd (HLA-A*02:01): ≥ 78.1 µM | Kd (HLA-A*68:02; source organism: Homo sapiens): ≥ 60000 nM
Sequence: ELESQISEL

Kd (HLA-A*02:06; source organism: Homo sapiens): 9.57 µM | Kd (HLA-A*68:02; source organism: Homo sapiens): 6350 nM
Sequence: ELVENGKKV

Sequence: EPVPLTVKM
Kd (HLA-B*07:02; [4]): 15000 nM | Kd (HLA-B*35:01; [4]): 63.4 nM | Kd (HLA-B*53:01; [4]): 0.327 µM | Kd (HLA-B*54:01; [4]): ≥ 69.5 µM | Kd (HLA-B*51:01; [4]): 12.7 µM

Sequence: ETQHGTTVV
Kd (HLA-A*68:02; source organism: Dengue virus 4 Philippines/H241/1956): 8.6 nM

Sequence: ETWNRQDLLV
Kd (HLA-A*68:02; [3]): 17 nM

Sequence: FIAFLRFLAI
Kd (HLA-A*02:06; [3]): 0.0149 µM | Kd (HLA-B*53:01; [3]): 1.32 µM | Kd (HLA-A*68:02; [3]): 417 nM

Sequence: FPDIPVNNNI
Kd (HLA-B*07:02; [2]): 821 nM | Kd (HLA-B*35:01; [2]): 442 nM | Kd (HLA-B*53:01; [2]): 0.00122 µM | Kd (HLA-B*54:01; [2]): 0.0693 µM | Kd (HLA-B*51:01; [2]): 0.0667 µM

Sequence: FPLNSKVKVI
Kd (HLA-B*07:02; [1]): ≥ 33400 nM | Kd (HLA-B*35:01; [1]): ≥ 29400 nM | Kd (HLA-B*53:01; [1]): 1.07 µM | Kd (HLA-B*54:01; [1]): 0.927 µM | Kd (HLA-B*51:01; [1]): 4.71 µM

Sequence: FPNITNLCPF
Kd (HLA-B*07:02; [1]): 56.6 nM | Kd (HLA-B*35:01; [1]): 1.66 nM | Kd (HLA-B*53:01; [1]): 0.000782 µM | Kd (HLA-B*54:01; [1]): 0.445 µM | Kd (HLA-B*51:01; [1]): 0.00633 µM

Sequence: FPPTSFGPLV
Kd (HLA-B*07:02; [1]): 2080 nM | Kd (HLA-B*35:01; [1]): ≥ 24700 nM | Kd (HLA-B*53:01; [1]): 4.86 µM | Kd (HLA-B*54:01; [1]): 1.26 µM | Kd (HLA-B*51:01; [1]): 6.26 µM

Sequence: GAITSAHFM
Kd (HLA-B*57:01): 687 nM | Kd (HLA-B*58:01): 905 nM

Sequence: HVDGKILFV
Kd (HLA-A*31:01): ≥ 40.5 µM | Kd (HLA-A*03:01): 3.14 µM | Kd (HLA-B*07:02; [2]): ≥ 77500 nM | Kd (HLA-B*35:01; [2]): ≥ 77400 nM | Kd (HLA-B*53:01; [2]): 11.5 µM | Kd (HLA-A*33:01): ≥ 77.7 µM | Kd (HLA-A*11:01): ≥ 72.3 µM | Kd (HLA-B*54:01; [2]): ≥ 78.1 µM | Kd (HLA-B*51:01; [2]): ≥ 68.5 µM | Kd (HLA-A*68:01): ≥ 77.7 µM

Kd (HLA-B*07:02; [5]): 3680 nM | Kd (HLA-B*35:01; [5]): 17100 nM | Kd (HLA-B*53:01; [5]): ≥ 49.1 µM | Kd (HLA-B*54:01; [5]): ≥ 87.7 µM | Kd (HLA-B*51:01; [5]): 0.0677 µM
Sequence: IPCRDVVL

Sequence: KPLLAPHHVV
Kd (HLA-B*07:02; [1]): 179 nM | Kd (HLA-B*35:01; [1]): ≥ 69900 nM | Kd (HLA-B*53:01; [1]): ≥ 69.9 µM | Kd (HLA-B*54:01; [1]): 7.25 µM | Kd (HLA-B*51:01; [1]): ≥ 69.6 µM

Source: the Immune Epitope Database (IEDB)
